One block for each molecule: values may come before it.
Columns and labels:
[1] = system: CD3 primed primary human T lymphocytes; test: Effect of anti-OX40L antibodies on CD3 primed primary human T lymphocytes (IFN-γ release); assay type: cell-based; details: 10 μg/mL, 5 days, four independent donors; versus human IgG4PE isotype control
Description: In order to determine whether anti-OX40L had the ability to induce T-cell responses in the absence of OX40L, the assay below was performed using method adapted from Wang et al., Hybridoma (Larchmt)., 2009 Aug.; 28(4):269-76, in which an agonist anti-OX40L antibody was described.
A mouse anti-human CD3 antibody (Becton Dickinson) was diluted to 0.5 μg/mL in sterile PBS and 50 μL/well added to a 96 well high binding sterile plate and incubated overnight at 4° C.
Following overnight incubation, the plate was washed three times with 100 μL of sterile PBS.
T-cells (CD3 positive) were isolated from PBMC derived from leukoreduction system chambers (NHSBT) as described in Example 3. Following isolation, the cells were added to wells in 100 μL to achieve a final concentration of 1×10^5 cells/well.
Test antibodies were diluted in RPMI+10% FBS and 50 μL or 100 μL/well added to cell plate to achieve a final assay concentration of 10 μg/mL. In some cases, a mouse anti-human CD28 antibody (Becton Dickinson) was also added to wells at a final concentration of 1 μg/ml
The assay was incubated for 5 days. After 5 days, harvest supernatants and IFN-γ levels in supernatant were determined as described in Example 5.

Rhesus monkey OX40L = test: Surface plasmon resonance, apparent affinity to rhesus OX40L; assay type: binding, Rhesus (Macaca mulatta); details: SPR, 25° C., OX40L at 256 nM; CNROR = Cannot resolve off-rate
Description: (§1) SPR analysis was carried out using the ProteOn™ XPR36 Array System (BioRad). Anti-mouse IgG (GE Healthcare BR-1008-38) was immobilised on a GLM biosensor surface using amine coupling, the surface was then blocked using 1 M ethanolamine. Test antibodies were captured on this surface and recombinant hOX40L (human and rhesus) were used at a single concentration of 256 nM, binding sensorgrams were double referenced using a buffer injection (i.e. 0 nM) to remove baseline drift and injection artefacts. Apparent affinities for the OX40L-antibody interaction were determined using the 1:1 model inherent to the ProteOn XPR36 analysis software. The assay was run using HBS-EP (Teknova) as running buffer and carried out at 25° C.

allogeneic PBMC/PBMC MLR = test: Allogeneic PBMC/PBMC Mixed Lymphocyte Reaction (IFN-γ release); assay type: cell-based, human; details: compared to the isotype control; one valid experiment
Description: PBMCs are isolated from leukoreduction system chambers (NHSBT) using Ficoll-Paque plus (GE Healthcare) density gradient centrifugation. PBMC are pre-incubated with mitomycin C (Sigma) at 10 μg/mL in PBS for one hour at 37° C. Cells are then washed 3 times in PBS centrifuging at 300×g for 3 minutes, aspirating the supernatant after each wash. Allogeneic PBMC (not treated with mitomycin C) are added to a 96-well plate in RPMI supplemented with 10% v/v FBS at a concentration of 2×10^6/ml, 50 μL/well. Anti-OX40L antibodies are diluted in culture media and added to 96 well plate containing PBMC (not mitomycin C treated) at 50 μL/well. Mitomycin C treated PBMC are then added to allogeneic PBMC (not treated with mitomycin C) in 96-well plate at a final cell ratio in range of 1:1 to 4:1 mitomycin C treated to non mitomycin C based on number of cells/well. The cells are incubated for five days at 37° C./5% CO2. After five days TNF-α, IFN-γ, and IL-2 are measured by duoset ELISA (R&D Systems) according to manufacturer's recommendations. Proliferation is measured by CFSE dilution according to manufacturer's recommendations.
PBMCs were isolated from leukoreduction system chambers (NHSBT) using Ficoll-Paque plus (GE Healthcare) density gradient centrifugation. […] After five days, IFN-γ was measured by duoset ELISA (R&D Systems) according to manufacturer's recommendations. […]

recombinant hOX40L = molecular target: T1, recombinant hOX40L (Homo sapiens, UniProt P23510); test: Surface plasmon resonance, apparent affinity to human OX40L; assay type: binding; details: SPR, 25° C., OX40L at 256 nM; CNROR = Cannot resolve off-rate
T1 construct: cDNA encoding the extracellular domain of human OX40L was cloned into a pREP4 expression plasmid; made in house; host or cells: FreeStyle CHO-S, transient expression
Description: as §1

CHO-S expressed hOX40L = molecular target: T2, CHO-S expressed hOX40L (Homo sapiens, UniProt P23510); test: FACS binding to CHO-S expressed hOX40L; details: binding to hOX40L expressed on CHO-S cells; YES
T2 construct: expressed in transfected cells
T2 sequence (P23510 1-183): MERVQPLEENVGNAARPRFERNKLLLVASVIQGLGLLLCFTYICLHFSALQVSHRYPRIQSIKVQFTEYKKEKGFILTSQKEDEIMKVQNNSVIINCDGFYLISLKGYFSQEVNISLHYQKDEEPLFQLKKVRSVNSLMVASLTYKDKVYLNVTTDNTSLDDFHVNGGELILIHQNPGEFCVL
Description: CHO-S cells expressing hOX40L or untransfected CHO-S cells, diluted in FACS buffer (PBS+1% w/v BSA+0.1% w/v NaN3) were distributed to a 96 well V-bottom plate (Greiner) at a density of 1×10^5 cells per well. Cells were washed with 150 μL of PBS and centrifuged at 300×g for 3 min. Supernatant was aspirated and 150 μL of PBS added. This wash step was repeated.
25 μL of hybridoma supernatant or purified antibody from hybridoma supernatant diluted in FACS buffer was added to the washed cells and incubated for 10-15 minutes. Reference Antibody or mouse IgG1 control antibody (Sigma) were diluted in FACS buffer to 20 μg/mL and 25 μL added to cells. 25 μL of human OX40R Fc (in-house) diluted to 1000 ng/mL in FACS buffer were then added to wells. Cells were incubated at 4° C. for 30 minutes.
Cells were washed twice with 150 μL of PBS centrifuging after each wash step and aspirating supernatant (centrifuged at 300×g for 3 minutes).
To detect antibody and receptor binding, 50 μL of Goat anti-human IgG-PE (Jackson ImmunoResearch) and APC anti-mouse IgG (Jackson ImmunoResearch) diluted 1 in 500 in FACS buffer was added to the cells. Cells were incubated 30 minutes at 4° C. in the dark.
To fix cells 100 μL 2% v/v paraformaldehyde was added and cells incubated for 30 minutes at 4° C., cells were pelleted by centrifugation 300×g and the plates and resuspended in 50 μL of FACS buffer. PE and APC signal intensity (geomean) was measured by flow cytometry using a BD FACS Array instrument.
% of control binding was calculated using geomean fluorescence as described in equation 1 where total binding was defined as reference antibody at 10 μg/mL and non-specific binding as mouse IgG1 antibody at 10 μg/mL. % receptor binding was calculated using Equation 3.
Binding of antibodies purified from hybridoma supernatant was carried out as described herein.

Rhesus monkey OX40L, sequence (as listed by the source): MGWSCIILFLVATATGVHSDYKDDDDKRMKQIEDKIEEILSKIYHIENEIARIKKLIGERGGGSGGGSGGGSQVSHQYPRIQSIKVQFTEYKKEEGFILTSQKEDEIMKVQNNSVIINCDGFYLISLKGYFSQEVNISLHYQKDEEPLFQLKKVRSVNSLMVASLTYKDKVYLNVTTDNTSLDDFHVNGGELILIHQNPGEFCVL
T1 sequence (P23510 with tags, fused parts or gaps): as the sequence (as listed by the source) above, with Q77R, E95K counted along it

Apparent Affinity RhsOX40L (nM) (Rhesus monkey OX40L): CNROR
Apparent Affinity hOX40L (nM) (recombinant hOX40L): CNROR
B1: 10A07 (human): fully human anti-human OX40L antibody reformatted to IgG4-PE; VH SEQ ID No:2, VL SEQ ID No:16 (antibody, listed as Homo Sapiens, V domains shown)
VH: EVQLVESGGVLVQPGGSLRLSCAASGFTFSSYIMTWVRQAPGKGLEWVSGISGSGGGTYYADSMKGRFTISRDNSKNTLYLQMNSLRVEDTAVYYCAKDRLGPITLVRGGYYYGMDVWGQGTTVTVSS
VL: DIQMTQSPSSLSASVGDRVTITCRASQSISDYLNWYQQKPGKAPKFLIYAASSLQSGVPSRFSGSGSGTDFTLTVSSLQPEDFATYYCQQSYSTPRTFGQGTRVEIK
modifications: IgG4-PE constant region
IFN-γ release from CD3 primed T-cells in the absence of OX40L [1]: no effect
IFN-γ release in PBMC/PBMC MLR (allogeneic PBMC/PBMC MLR): inhibited IFN-γ release

FACS Binding (CHO-S expressed hOX40L): YES
Apparent Affinity RhsOX40L (nM) (Rhesus monkey OX40L): CNROR
Apparent Affinity hOX40L (nM) (recombinant hOX40L): CNROR
B2: 10A07 (hybridoma): murine/human chimeric anti-hOX40L antibody purified from hybridoma supernatant; VH SEQ ID No:2, VL SEQ ID No:16 (antibody, listed as Homo Sapiens, V domains shown)
VH: B1 VH
VL: B1 VL

FACS Binding (CHO-S expressed hOX40L): YES
Apparent Affinity RhsOX40L (nM) (Rhesus monkey OX40L): CNROR
Apparent Affinity hOX40L (nM) (recombinant hOX40L): CNROR
B3: 2D10 (hybridoma): murine/human chimeric anti-hOX40L antibody purified from hybridoma supernatant; VH SEQ ID No:34, VL SEQ ID No:48 (antibody, listed as Homo Sapiens, V domains shown)
VH: EVQLVESGGGLVQPGGSLRLSCAASGFTFSNYAMNWVRQAPGKGLEWVSTISGSGGATRYADSVKGRFTISRDNSRNTVYLQMNSLRVEDTAVFYCTKDRLIMATVRGPYYYGMDVWGQGTTVTVSS
VL: DIQMTQSPSSLSASVGDRVTITCRASQSISSYLNWYQQKPGKAPNLLIYAASSLQSGVPSRFSGSGSETDFTLTISSLQPEDFATYYCQQSHSVSFTFGPGTKVDIK

FACS Binding (CHO-S expressed hOX40L): YES
B4: 9H04 (hybridoma): murine/human chimeric anti-hOX40L antibody from hybridoma; VH SEQ ID No:66, VL SEQ ID No:80 (antibody, listed as Homo Sapiens, V domains shown)
VH: QVQLVESGGGLVKPGGSLRLSCAASRFTLSDYYMTWIRQAPGKGLEWVSYISSSGNTIYYADSVKGRFTISRDNAKNSLYLQMNSLRAEDTAVYYCARDLSGSYWDYYYGMDVWGQGTTVTVSS
VL: AIQLTQSPSSLSTSVGDRVTIACRASQGINNALAWYQQKPGKAPKLLIYDASSLESGVPSRFSGSGSGTDFTLTISSLQPEDFATYYCQQFNSYPRTFGQGTKVEIK
